Experiments:
[1] = target: T1, recombinant human LAG-3-Fc (human, UniProt P18627 23-450); assay: BLI (Octet); human LAG-3-Fc captured on protein G biosensors, 1:1 fit
T1 construct: also called human LAG-3 (R&D Systems cat no. 2319-L3); LAG3 antigen
T1 sequence: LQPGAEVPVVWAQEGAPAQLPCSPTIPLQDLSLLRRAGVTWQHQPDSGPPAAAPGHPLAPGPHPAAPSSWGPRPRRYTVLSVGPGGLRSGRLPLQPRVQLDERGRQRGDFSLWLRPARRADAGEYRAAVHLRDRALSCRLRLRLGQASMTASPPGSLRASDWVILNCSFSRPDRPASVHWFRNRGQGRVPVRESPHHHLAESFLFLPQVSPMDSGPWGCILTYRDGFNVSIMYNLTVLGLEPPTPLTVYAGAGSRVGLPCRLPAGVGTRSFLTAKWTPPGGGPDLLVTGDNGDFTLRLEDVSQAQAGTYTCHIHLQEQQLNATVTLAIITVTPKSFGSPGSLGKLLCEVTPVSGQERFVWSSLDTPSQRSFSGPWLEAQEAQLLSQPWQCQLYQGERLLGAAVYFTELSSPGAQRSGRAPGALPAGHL

[2] = target: T2, recombinant human PD-1 Fc chimera (human, UniProt Q15116 25-167); assay: Octet bio-layer interferometry; VH (100 nM) first bound to immobilised LAG3-Fc, then PD-1-Fc added
T2 construct: Bought Fc chimera; also called human PD-1 (R&D systems cat no. 1086-PD); PD1 antigen
Description: Recombinant LAGS-Fc (10 μg/ml) was immobilised by standard amine coupling to amine reactive biosensors in 10 mM sodium acetate at pH6. The binding steps were performed in 0.1% BSA 0.02% Tween20 in PBS. 100 nM of Humabody® were used in the first binding step, followed by binding of human PD1-Fc at 5 μg/ml. The contact time for association and dissociation was 200 seconds.

[3] = target: T3, human LAG-3 expressed on cells (human, UniProt P18627 23-525); assay: cell-based or functional assay
T3 sequence: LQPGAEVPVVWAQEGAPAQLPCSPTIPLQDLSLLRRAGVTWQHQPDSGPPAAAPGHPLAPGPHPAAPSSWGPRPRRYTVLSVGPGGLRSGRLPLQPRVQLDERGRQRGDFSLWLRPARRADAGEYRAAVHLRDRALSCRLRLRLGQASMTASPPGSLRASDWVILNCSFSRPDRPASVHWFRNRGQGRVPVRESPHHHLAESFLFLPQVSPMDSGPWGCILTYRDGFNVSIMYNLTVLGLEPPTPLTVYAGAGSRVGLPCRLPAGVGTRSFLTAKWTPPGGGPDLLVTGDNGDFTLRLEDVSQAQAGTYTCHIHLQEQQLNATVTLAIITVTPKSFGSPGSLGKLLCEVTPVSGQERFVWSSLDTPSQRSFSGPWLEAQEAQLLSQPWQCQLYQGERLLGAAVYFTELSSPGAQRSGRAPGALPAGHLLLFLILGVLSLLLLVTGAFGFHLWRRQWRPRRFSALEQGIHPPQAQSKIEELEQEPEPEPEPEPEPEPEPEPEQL

[4] = target: T1, recombinant human LAG-3-Fc; assay: competition ELISA; LAG-3-Fc pre-incubated with VH, binding to coated Galectin-3
Excerpt: (§1) The plate was blocked with 3% Marvel skimmed milk powder in PBS. […] Wash steps were done 3 times with PBS 0.05% Tween. Colour was developed using TMB and 0.5M sulphuric acid solution.

[5] = target: T4, human LAG-3 domains 1-2-Fc (human, UniProt P18627 23-261, limits assumed); assay: BLI (Octet); human LAG-3 domains 1-2-Fc captured on protein G biosensors, 1:1 fit
T4 construct: Domains were identified as per Huard et al 1997 PNAS 94:5744-9; also called truncated LAG-3
T4 sequence: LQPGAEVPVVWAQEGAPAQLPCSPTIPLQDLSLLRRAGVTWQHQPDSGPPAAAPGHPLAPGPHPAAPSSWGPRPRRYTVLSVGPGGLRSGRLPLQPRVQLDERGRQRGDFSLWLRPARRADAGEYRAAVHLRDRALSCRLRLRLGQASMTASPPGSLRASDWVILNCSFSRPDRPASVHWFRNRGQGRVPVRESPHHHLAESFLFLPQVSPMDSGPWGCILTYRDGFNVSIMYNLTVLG
Description: Binding kinetics for multi-valent and bispecific VH were also measured in real-time bio-layer interferometer based biosensor Octet (ForteBio). […] All the binding studies were performed in HBS-ET Octet kinetics buffer. Biosensors were washed in Octet kinetics buffer in between different steps. […] The contact time for each of the association steps was 150 seconds and the dissociation step was 400 seconds. […] To compare the constructs, kinetic association (kₐ) and dissociation (kd) rate constants were determined by processing and fitting the data to a 1:1 binding model using ForteBio Analysis software.

[6] = target: T1, recombinant human LAG-3-Fc; assay: competition ELISA; LAG-3-Fc pre-incubated with VH, binding to coated LSECtin
Excerpt: as §1

[7] = target: T3, human LAG-3 expressed on cells; assay: flow cytometry (Intellicyte) on anti-CD3/anti-CD28 stimulated human CD4+ T cells; His-tagged VH detected with anti-HIS biotin and streptavidin AlexaFluor488
Description: FIG. 2. CD4+ T cells were stimulated with anti-CD3 and anti-CD28. Cells were stained with HIS tagged VH plus anti-HIS tag labelled with biotin and streptavidin AlexaFluor488. Cells were analysed using Intellicyte® cytometer.
Binding onto human activated T cells was measured by cytometry. PBMC or magnetically isolated T cells were isolated from leukocytes cones and cells were incubated in 96 well plates coated with anti-CD3 (OKT3) at 5 μg/ml. Anti-CD28 (CD28.2) was added at 1 μg/ml in RPMI media and foetal bovine serum. After 72-96 hours, cells were harvested and stained using standard flow cytometry methods. […] Fluorescently labelled anti-CD4 and anti-CD8 were included in PBMC cultures and a live/dead dye. Stained cells were analysed using the IQue cytometer (Intellicyte). EC50 were calculated from the titration curve of median fluorescence of Humabody, gating on CD4+ or CD8+ cells if using mixed cells.

T2 sequence (Q15116 25-167 limits assumed, change not shown): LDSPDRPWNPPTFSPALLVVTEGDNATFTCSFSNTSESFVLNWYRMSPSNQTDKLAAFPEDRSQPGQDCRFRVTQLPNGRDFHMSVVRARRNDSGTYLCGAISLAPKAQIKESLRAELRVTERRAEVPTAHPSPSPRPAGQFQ

B1: VH1.1-6GS-VH1.1-His6 (VHH)
chain: EVQLVESGGGVVRPGGSLRLSCSASGFTFDDYGMSWVRQAPGKGLEWVSGIHWNGGNSGYADSVKGRFTISRDNAKNSLYLQMNSLRAEDTALYYCARIPREDCSSASCYTDAIDFWGPGTMVTVSSGGGGSGGGGSGGGGSGGGGSGGGGSGGGGSEVQLVESGGGVVRPGGSLRLSCSASGFTFDDYGMSWVRQAPGKGLEWVSGIHWNGGNSGYADSVKGRFTISRDNAKNSLYLQMNSLRAEDTALYYCARIPREDCSSASCYTDAIDFWGPGTMVTVSSAAAHHHHHH
notes: Tandem fusion of two VH 1.1, bivalent for LAG-3; The entry includes the C-terminal AAA-His6; also called 1.1-6GS-1.1; bivalent 1.1-6GS-1.1
A Kd [1] of 0.417 nM, a koff [1] of 0.00047 s⁻¹ and a kon [1] of 1.13e+06 M⁻¹ s⁻¹ were found for B1 in this work. For the same binder, the binding result [2] was “no binding”, the “EC50 (M), NFAT-Luciferase Reporter Gene assay (LAG-3:MHCII)” value [3] was 4.1e-09 M and the IC50 [4] was 34 nM. The Kd [5] was 0.811 nM, the koff [5] was 0.000522 s⁻¹ and the kon [5] was 644000 M⁻¹ s⁻¹. For the same binder, the IC50 [6] was 55 nM and the “EC50 (read off the curve)” value [7] was about 0.1 nM.

From patent publication US20210015937A1 (CRESCENDO BIOLOGICS, published 2021)
